Measurements published in publication doi:10.1101/2024.04.09.588654 (bioRxiv, 2024).

Target: Phosphatidylinositol 4-kinase alpha (PI4KA), subunit of the PI4KA complex (human, UniProt P42356 1-2102)
Test: cryo-EM structure

B1: TTC7B, subunit of the PI4KA complex (natural protein)
chain: MATKKAGSRLETEIERCRSECQWERIPELVKQLSAKLIANDDMAELLLGESKLEQYLKEHPLRQGASPRGPKPQLTEVRKHLTAALDRGNLKSEFLQESNLIMAKLNYVEGDYKEALNIYARVGLDDLPLTAVPPYRLRVIAEAYATKGLCLEKLPISSSTSNLHVDREQDVITCYEKAGDIALLYLQEIERVILSNIQNRSPKPGPAPHDQELGFFLETGLQRAHVLYFKNGNLTRGVGRFRELLRAVETRTTQNLRMTIARQLAEILLRGMCEQSYWNPLEDPPCQSPLDDPLRKGANTKTYTLTRRARVYSGENIFCPQENTEEALLLLLISESMANRDAVLSRIPEHKSDRLISLQSASVVYDLLTIALGRRGQYEMLSECLERAMKFAFEEFHLWYQFALSLMAAGKSARAVKVLKECIRLKPDDATIPLLAAKLCMGSLHWLEEAEKFAKTVVDVGEKTSEFKAKGYLALGLTYSLQATDASLRGMQEVLQRKALLAFQRAHSLSPTDHQAAFYLALQLAISRQIPEALGYVRQALQLQGDDANSLHLLALLLSAQKHYHDALNIIDMALSEYPENFILLFSKVKLQSLCRGPDEALLTCKHMLQIWKSCYNLTNPSDSGRGSSLLDRTIADRRQLNTITLPDFSDPETGSVHATSVAASRVEQALSEVASSLQSSAPKQGPLHPWMTLAQIWLHAAEVYIGIGKPAEATACTQEAANLFPMSHNVLYMRGQIAELRGSMDEARRWYEEALAISPTHVKSMQRLALILHQLGRYSLAEKILRDAVQVNSTAHEVWNGLGEVLQAQGNDAAATECFLTALELEASSPAVPFTIIPRVL
- binding result: binds
